In assay [1] the target is T1, Bacteriorhodopsin (Halobacterium salinarum S9), P02945.
T1 chain: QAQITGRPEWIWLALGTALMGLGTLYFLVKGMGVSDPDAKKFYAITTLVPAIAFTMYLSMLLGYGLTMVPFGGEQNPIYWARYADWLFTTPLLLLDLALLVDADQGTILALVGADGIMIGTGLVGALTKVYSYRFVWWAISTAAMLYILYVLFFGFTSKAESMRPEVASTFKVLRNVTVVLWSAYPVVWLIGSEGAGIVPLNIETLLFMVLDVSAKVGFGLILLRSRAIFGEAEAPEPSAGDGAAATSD
Briefly: circular dichroism in the visible range; bR in native purple membrane (PM); 700-400 nm, 20 °C; a biphasic signal marks the trimer. The following applies: remark: other sources report otherwise.

Assay [2] deals with T1, Bacteriorhodopsin (Halobacterium …). The assay is described as follows: circular dichroism in the visible range; bR in PMND (cE3D1 nanodisc assembled directly from PM), SEC-purified early fractions 1 to 6; 700-400 nm, 20 °C; a biphasic signal marks the trimer. Conditions: remark: other sources report otherwise.

B1: Bacteriorhodopsin, P02945 14-262 (natural protein)
chain: T1 chain
modifications: here or on the partner: retinal Schiff base (residue not given); retinal Schiff base (residue not given)
In the case of B1, the stoichiometry N in assay [1] and in assay [2] was 3 throughout.

Values taken from publication PMC6131177.
